Reference: the nanobody polyreactivity screen of Harvey et al. (2022)

Assay: yeast display, Sf9 membrane polyspecificity reagent, FACS + sequencing; frameworks hold sequencing errors
Outline: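 Sorting gates, low and high (top ~1%), were placed on anti-HA fluorescence to track expression and on streptavidin fluorescence to track reagent binding. A clone's polyreactivity label is taken from the gate it came out of. The reagent was 10% biotinylated, detergent-solubilized Sf9 membrane, applied for 1 hour at 4 °C to galactose-induced yeast display cells.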

Sequence	polyreactivity (PSR sort gate)
QVQLVESGGGLVQAGGSLRLSCAASGSIFGDYAMGWYRQAPVKERELVATITWIGGSTYYADSVKGRFTISRDNAKNTVYLQMNSLTPEDTAVYYCAATKYVDVKYYYWGQGTQVTVSS	low polyreactivity
QVQLVESGGGLVQAGGSLRLSCAASGSIFGDYVMGWYRQAPGKERELVAAINRGGSTYYADSVKGRFTISRDNAKNTVYLQMNSLKPEDTALYYCAAGYPSWYYGYPYDSWGQGTQVTVSS	low polyreactivity
QVQLVESGGGLVQAGGSLRLSCAASGSIFGEIAMGWYRQAPGKERELVAAISSGVSTNYADSVKGRFTISRDNAKNTVYLQMNSLKPEDTAVYYCAVDSLPNSPYDYWGHGTQVTVSS	low polyreactivity
QVQLVESGGGLVQAGGSLRLSCAASGSIFGENAMGRYRQAPGKERELVAAITSGGSTDYADSVKGRFTISRDNAKNTVYLQMNSLKPEDTAVYYCAASGRVGPGYWYDSWGQGTQVTVSS	low polyreactivity
QVQLVESGGGLVQAGGSLRLSCAASGSIFGENAMGWYRQAPGKERELVASITESGVTTYYADSVKGRFTISRDNAKNTVYLQMNSLKPEDTAVYYFWGQGTQVTVSS	low polyreactivity
QVQLVESGGGLVQAGGSLRLSCAASGSIFGEYTMGWYRPAPGKERELVAAIRSGGDTYYADSVKGRFTISRDNAKNTVYLQMNSLKPEDTAVYYCNAYWVRHYIMDYWGQGTQVTVSS	low polyreactivity
QVQLVESGGGLVQAGGSLRLSCAASGSIFGFYAMGWYIQAPGKERELVAAISDSGDSTYYADSVKGRFTISRDNAKNTVYLQMNSLKPEDTAVYYCATDGRSNYYWGDYWGQGTHVTVSS	low polyreactivity
QVQLVESGGGLVQAGGSLRLSCAASGSIFGFYAMGWYRQAPGKERELVAAITSGDSTHYADSVKGRFTISRDNAKNTVYLQMNSLKPEDTAVYYCAASAPYRYYRSAYYYWGQGTQVTVSS	low polyreactivity
QVQLVESGGGLVQAGGSLRLSCAASGSIFGFYGMGWYRQAPGKERELVAAISSRGGSTYYADSVKGRFTISRDNAKNTVYLQMNSLKPEDTAVYYCATERERTMGYWGQGTQVTVSW	high polyreactivity
QVQLVESGGGLVQAGGSLRLSCAASGSIFGGNAMGWSRQAPGKERELVAVITSGGSTYYADSVKGRFTISRDNAKNTVYLQMNSLKPEDTAVYYCNVDRLARKAHYDYWGQGTQVTVSS	high polyreactivity
QVQLVESGGGLVQAGGSLRLSCAASGSIFGGNAMGWYRPAPGTVRELVAAITSSGGSTYYADSVKGRFTMSRDNAKNTVYLQMNSLNPEDTAVYYSNKAYPGRTYDYWGQGTQVTVSS	high polyreactivity
QVQLVESGGGLVQAGGSLRLSCAASGSIFGGNAMGWYRQAPGKERELVATIDFSGTSTYYADSVKGRFTISRDHAKKTVYLQMHSLKPEDTSVSSCNARSYPDYIYWSQRYDYDFWGQGTQVTVSS	low polyreactivity
QVQLVESGGGLVQAGGSLRLSCAASGSIFGGNAMGWYRQAPGKETELVATITVRGGSTYYADSVKGRFRISRDNAKNSVYLQMNSLKPEDTAVYYCATEEVSRYRYGYWGQGTQVTVSS	low polyreactivity
QVQLVESGGGLVQAGGSLRLSCAASGSIFGGNDMGWSRQAPGKERAWVAAITATSGSTYYADSVKGRFTISRDNAKNTVYLQMNSLKPEDTAVYYCAAKPVGTYSRPHDYWGQGTQVTVSS	low polyreactivity
QVQLVESGGGLVQAGGSLRLSCAASGSIFGGNTMGWYRKAPGKERELVAAITNGGRTNYADSVKGRFTISRDNAKNTVYLQMNSLKPEDTAVYYCNAVTYSRRYAYYYWGQGTQVTVSS	high polyreactivity
QVQLVESGGGLVQAGGSLRLSCAASGSIFGGNTMGWYRQAPGKERELVAAISRSGGSTYYADSVKGRFTISRDNAKNTVYLQMNSLKPEDTAVYYCNRKQAGHAQGYDYWGQGTQVTVSS	high polyreactivity
QVQLVESGGGLVQAGGSLRLSCAASGSIFGGSGMGWYRQAPGKERELVAAITSGSSTYYADSVKGRFTISRDNAKNTVYLQMNSLKPEDTAVYYCAARPYPHSAYEGDYWGRGTQVTVSS	low polyreactivity
